Laboratory results taken from article PMC3776215.

These substances were tested against Recombinant human urokinase-type plasminogen activator receptor (uPAR) (human) (UniProt Q03405) (assay: SPR).
Sequence of UniProt Q03405 (Q03405 23-305): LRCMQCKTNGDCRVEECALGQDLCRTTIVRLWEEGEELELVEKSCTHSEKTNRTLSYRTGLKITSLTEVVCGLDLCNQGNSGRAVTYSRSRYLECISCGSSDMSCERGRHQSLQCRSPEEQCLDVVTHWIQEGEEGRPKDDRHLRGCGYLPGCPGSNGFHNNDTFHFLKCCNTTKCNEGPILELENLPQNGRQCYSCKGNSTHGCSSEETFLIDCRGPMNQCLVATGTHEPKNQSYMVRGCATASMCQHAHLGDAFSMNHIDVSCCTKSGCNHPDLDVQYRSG

IC50	kon	Kd	koff	Substance
6.7 nM	620000 M⁻¹ s⁻¹	–	–	AE105 (Asp-Cha-Phe-(D)Ser-(D)Arg-Tyr-Leu-Trp-Ser) (peptide)
6.7 nM	460000 M⁻¹ s⁻¹	9.4 nM	0.0043 s⁻¹	DOTA-AE105 (peptide)
5.9 nM	–	7.7 nM	0.0046 s⁻¹	CB-TE2A-AE105 (peptide)
> 1000 nM	–	–	–	CB-TE2A-PA-AE105^mut (peptide)
> 1000 nM	–	–	–	CB-TE2A-AE105^mut (peptide)
> 1000 nM	–	–	–	DOTA-AE105^mut (peptide)
6.1 nM	400000 M⁻¹ s⁻¹	27 nM	0.0108 s⁻¹	CB-TE2A-PA-AE105 (peptide)
